From the supplement of paper PMC7877785 come the findings set out here.

± gives the uncertainty stated by the source.

The nature of this series: self-splicing fitness, log relative to wild type (ln ratio); higher = more splicing; Tetrahymena group I intron in knt gene, E. coli kanamycin selection, DiMSum; sequences stand for … in CUCUCU…GGAGGGAAAAGUUAUCAGGCAUGCACCUGGUAGCUAGUCUUUAAACCAAUAGAUUGCAUCGGUUUAAAAGGCAAGACCGUCAAAUUGCGGGAAAGGGGUCAACAGCCGUUCAGUACCAAGUCUCAGGGGAAACUUUGAGAUGGCCUUGCAAAGGGUAUGGUAAUAAGCUGACGGACAUGGUCCUAACCACGCAGCCAAGUCCUAAGUCAACAGAUCUUCUGUUGAUAUGGAUGCAGUUCACAGACUAAAUGUCGGUCGGGGAAGAUGUAUUCUUCUCAUAAGAUAUAGUCGGACCUCUCCUUAAUGGGAGCUAGCGGAUGAAGUGAUGCAACACUGGAGCCGCUGGGAACUAAUUUGUAUGCGAAAGUAUAUUGAUUAGUUUUGGAGUACUCGUGGUCG
A digest of the protocol:
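A randomised library covering all eight P1ex-region intron nucleotides was built with the intron in the knt kanamycin-resistance gene on pET-22b(+) and held in E. coli BL21(DE3). Cells were grown overnight at 37°C or 30°C on LB agar, with or without 25 μg/mL kanamycin, plus 100 μg/mL carbenicillin, 50 μM IPTG and 0.2% rhamnose, and pooled colonies were amplicon-sequenced on an Illumina HiSeq 2500. DiMSum fitness is the error-weighted combination of wild-type-normalised replicate fold changes, kanamycin versus none.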

Take CCGAAGCAAUAUUACGUUAC: the “self-splicing fitness (ln)” value (30 °C) is -3.03 ± 0.16 and the “self-splicing fitness (ln)” value (37 °C) was -2.43 ± 0.26.
As for UAAAAGCAAUAUUACGCGUA, the “self-splicing fitness (ln)” value reads like this: (30 °C) -1.12 ± 0.11; (37 °C) -0.0821 ± 0.096.
As to GCUUAGCAAUAUUACGCCCA, the “self-splicing fitness (ln)” value (30 °C) was -1.96 ± 0.24 and the “self-splicing fitness (ln)” value (37 °C) was -0.0842 ± 0.23.
On to CUGGAGCAAUAUUACGGCCG, for which, under “30 °C”, the “self-splicing fitness (ln)” value is -0.999 ± 0.27.
Regarding GGAUAGCAAUAUUACGUGCA, the “self-splicing fitness (ln)” value by setting is: (30 °C) -1.3 ± 0.11; (37 °C) 0.203 ± 0.12.
Consider AGGAAGCAAUAUUACGCUGC, for which the “self-splicing fitness (ln)” value (30 °C) was -3.38 ± 0.43.
As to GCGAAGCAAUAUUACGUUUG, the “self-splicing fitness (ln)” value (30 °C) is -2.87 ± 0.14 and the “self-splicing fitness (ln)” value (37 °C) was -2.68 ± 0.23.
For ACGAAGCAAUAUUACGCAGU the same measures were -3.29 ± 0.17 and -2.5 ± 0.2.
The corresponding values for AUGGAGCAAUAUUACGCAUA are -1.53 ± 0.42 and -1.29 ± 0.23.
In the case of AACUAGCAAUAUUACGAGAU, the “self-splicing fitness (ln)” value (30 °C) is -2.52 ± 0.13 and the “self-splicing fitness (ln)” value (37 °C) was -1.65 ± 0.14.
For CAACAGCAAUAUUACGGAUA the same measures were -3.38 ± 0.17 and -2.14 ± 0.15.
For the sequence GCAAAGCAAUAUUACGUUAU, the “self-splicing fitness (ln)” value is -1.73 ± 0.084 (30 °C) and -1.54 ± 0.092 (37 °C).
For GAAAAGCAAUAUUACGUCGU the same measures were -0.785 ± 0.086 and -1.29 ± 0.12.
Regarding AGCCAGCAAUAUUACGCCUA, the “self-splicing fitness (ln)” value is, setting by setting: (30 °C) -2.14 ± 0.25; (37 °C) -1.07 ± 0.23.
The corresponding values for GCCAAGCAAUAUUACGUACC are -1.28 ± 0.1 and -0.683 ± 0.15.
With AUUUAGCAAUAUUACGCUUC, the “self-splicing fitness (ln)” value (30 °C) was -2.33 ± 0.5.
Take CAAGAGCAAUAUUACGCCUG: the “self-splicing fitness (ln)” value is, setting by setting: (30 °C) -1.47 ± 0.21; (37 °C) -2.17 ± 0.32.
The corresponding values for CUUGAGCAAUAUUACGCUUA are -2.82 ± 0.29 and -3.02 ± 0.37.
For CCAAAGCAAUAUUACGUCCC, the “self-splicing fitness (ln)” value was -3.62 ± 0.35 (30 °C) and -1.59 ± 0.27 (37 °C).
As for UUCAAGCAAUAUUACGCAGG, the “self-splicing fitness (ln)” value reads like this: (30 °C) -2.71 ± 0.14; (37 °C) -1.78 ± 0.13.
For the sequence UCACAGCAAUAUUACGUCCA, the “self-splicing fitness (ln)” value reads like this: (30 °C) -0.951 ± 0.14; (37 °C) -0.533 ± 0.14.
In the case of CAUUAGCAAUAUUACGAUGC, the “self-splicing fitness (ln)” value (37 °C) is -3.61 ± 0.42.
Take CUUCAGCAAUAUUACGGAAA: the “self-splicing fitness (ln)” value (30 °C) was -1.17 ± 0.18 and the “self-splicing fitness (ln)” value (37 °C) is -1.16 ± 0.15.
Take AUCUAGCAAUAUUACGAAGA: the “self-splicing fitness (ln)” value reads like this: (30 °C) -1.45 ± 0.14; (37 °C) -1.67 ± 0.15.
On to UCUCAGCAAUAUUACGAUUC, for which the “self-splicing fitness (ln)” value (30 °C) is -2.66 ± 0.28 and the “self-splicing fitness (ln)” value (37 °C) is -1.94 ± 0.27.
The corresponding values for AGACAGCAAUAUUACGCCUU are -2.75 ± 0.097 and -0.727 ± 0.086.
With GGAUAGCAAUAUUACGUGAC, the “self-splicing fitness (ln)” value reads like this: (30 °C) -2.63 ± 0.35; (37 °C) -1.46 ± 0.26.
As for CGAUAGCAAUAUUACGAAAA, the “self-splicing fitness (ln)” value by setting is: (30 °C) -3.85 ± 0.48; (37 °C) -2.7 ± 0.3.
In the case of UCCCAGCAAUAUUACGGUCC, the “self-splicing fitness (ln)” value (30 °C) was -1.68 ± 0.14 and the “self-splicing fitness (ln)” value (37 °C) was -1.26 ± 0.18.
For GAUCAGCAAUAUUACGAAUU the same measures were -1.21 ± 0.065 and -0.655 ± 0.083.
For AGUUAGCAAUAUUACGCAUC the same measures were -3.63 ± 0.43 and -1.68 ± 0.23.
Consider UUCAAGCAAUAUUACGGGGG, for which the “self-splicing fitness (ln)” value runs as follows: (30 °C) -3.34 ± 0.26; (37 °C) -0.739 ± 0.16.
Take GAUGAGCAAUAUUACGUAUA: for the setting “37 °C”, the “self-splicing fitness (ln)” value is -1.82 ± 0.35.
For UCCUAGCAAUAUUACGACUC, the “self-splicing fitness (ln)” value runs as follows: (30 °C) -2.94 ± 0.41; (37 °C) -2.24 ± 0.36.
The corresponding values for GAGUAGCAAUAUUACGGACG are -3.14 ± 0.28 and -0.531 ± 0.2.
For the sequence AUCUAGCAAUAUUACGUGUU, the “self-splicing fitness (ln)” value (30 °C) is -2.71 ± 0.17 and the “self-splicing fitness (ln)” value (37 °C) was -2.54 ± 0.17.
The corresponding values for ACGCAGCAAUAUUACGACGU are -3.11 ± 0.1 and -0.828 ± 0.097.
As to CGCCAGCAAUAUUACGGAGA, the “self-splicing fitness (ln)” value (37 °C) was -2.4 ± 0.24.
For UUCCAGCAAUAUUACGACUC, the “self-splicing fitness (ln)” value is -3.04 ± 0.24 (30 °C) and -1.67 ± 0.19 (37 °C).
The corresponding values for UUUUAGCAAUAUUACGUAAC are -3.07 ± 0.31 and -1.57 ± 0.38.
The corresponding values for GGGUAGCAAUAUUACGCAGC are -2.55 ± 0.13 and -0.837 ± 0.12.
For CCGCAGCAAUAUUACGAAAU the same measures were -3.66 ± 0.32 and -3.38 ± 0.33.
Turning to CGCGAGCAAUAUUACGCAUU, the “self-splicing fitness (ln)” value reads like this: (30 °C) -2.71 ± 0.18; (37 °C) -3.29 ± 0.35.
Take UCAAAGCAAUAUUACGAAUA: the “self-splicing fitness (ln)” value is -1.92 ± 0.43 (30 °C) and -1.78 ± 0.3 (37 °C).
For ACAAAGCAAUAUUACGGCAG the same measures were -1.1 ± 0.064 and -0.658 ± 0.088.
For GGGAAGCAAUAUUACGGCAU, the “self-splicing fitness (ln)” value is -0.534 ± 0.16 (30 °C) and -0.344 ± 0.19 (37 °C).
For UCUAAGCAAUAUUACGUAAG the same measures were -0.798 ± 0.075 and -0.333 ± 0.1.
As for ACUCAGCAAUAUUACGUUGG, the “self-splicing fitness (ln)” value is, setting by setting: (30 °C) -3.63 ± 0.15; (37 °C) -1.49 ± 0.096.
For UGAAAGCAAUAUUACGCCAG the same measures were -0.985 ± 0.12 and -0.807 ± 0.12.
For the sequence GACAAGCAAUAUUACGAACC, the “self-splicing fitness (ln)” value reads like this: (30 °C) -1.06 ± 0.14; (37 °C) -0.514 ± 0.17.
The corresponding values for CGGGAGCAAUAUUACGUAUU are -4.48 ± 0.41 and -2.31 ± 0.37.
UCUUAGCAAUAUUACGAGAA: the “self-splicing fitness (ln)” value (30 °C) is -2.37 ± 0.47.
Regarding CUUAAGCAAUAUUACGCUUU, the “self-splicing fitness (ln)” value by setting is: (30 °C) -3.13 ± 0.11; (37 °C) -2.26 ± 0.15.
Turning to CGAAAGCAAUAUUACGUACC, the “self-splicing fitness (ln)” value (30 °C) was -1.18 ± 0.13 and the “self-splicing fitness (ln)” value (37 °C) was -0.845 ± 0.2.
As to AGCUAGCAAUAUUACGAAUC, for the setting “37 °C”, the “self-splicing fitness (ln)” value was -1.56 ± 0.28.
On to AAUCAGCAAUAUUACGUAGA, for which the “self-splicing fitness (ln)” value is -0.378 ± 0.071 (30 °C) and -0.124 ± 0.089 (37 °C).
In the case of CGCGAGCAAUAUUACGAAUU, the “self-splicing fitness (ln)” value by setting is: (30 °C) -3.16 ± 0.27; (37 °C) -2.03 ± 0.21.
For the sequence GAAGAGCAAUAUUACGUACC, the “self-splicing fitness (ln)” value runs as follows: (30 °C) -1.6 ± 0.2; (37 °C) -1.49 ± 0.19.
The corresponding values for CGUCAGCAAUAUUACGAUCA are -0.722 ± 0.096 and 0.228 ± 0.12.
Turning to CGCAAGCAAUAUUACGGAUG, the “self-splicing fitness (ln)” value (30 °C) is -1.2 ± 0.062 and the “self-splicing fitness (ln)” value (37 °C) is -0.889 ± 0.073.
Regarding CUUAAGCAAUAUUACGGACC, the “self-splicing fitness (ln)” value (37 °C) is -0.536 ± 0.36.
AGUUAGCAAUAUUACGUACC: the “self-splicing fitness (ln)” value (30 °C) is -0.585 ± 0.24 and the “self-splicing fitness (ln)” value (37 °C) is -0.376 ± 0.28.
On to AGCCAGCAAUAUUACGGGUU, for which the “self-splicing fitness (ln)” value is -3.25 ± 0.15 (30 °C) and -3.81 ± 0.25 (37 °C).
The corresponding values for CUUGAGCAAUAUUACGAGUC are -4.15 ± 0.39 and -1.33 ± 0.17.
The corresponding values for UUGCAGCAAUAUUACGGAAA are -2.52 ± 0.14 and -0.504 ± 0.1.
Regarding CGAGAGCAAUAUUACGCUGU, the “self-splicing fitness (ln)” value (37 °C) was -3.26 ± 0.38.
As for GCGAAGCAAUAUUACGGAAA, the “self-splicing fitness (ln)” value is, setting by setting: (30 °C) -3.34 ± 0.36; (37 °C) -1.57 ± 0.27.
The corresponding values for AUAAAGCAAUAUUACGCUAC are -3.14 ± 0.25 and -2.99 ± 0.33.
On to UAAGAGCAAUAUUACGCACC, for which the “self-splicing fitness (ln)” value (37 °C) is -1.93 ± 0.41.
As for UGCGAGCAAUAUUACGGUCG, the “self-splicing fitness (ln)” value (30 °C) is -2.27 ± 0.25 and the “self-splicing fitness (ln)” value (37 °C) is -2.39 ± 0.27.
For GCGUAGCAAUAUUACGGUGU the same measures were -3.33 ± 0.21 and -1.48 ± 0.14.
The corresponding values for UGCCAGCAAUAUUACGGGAA are -1.37 ± 0.092 and -0.333 ± 0.1.
The corresponding values for CGCUAGCAAUAUUACGAGCU are -0.561 ± 0.11 and -0.7 ± 0.11.
Regarding UGAAAGCAAUAUUACGCCUC, the “self-splicing fitness (ln)” value (30 °C) was -1.85 ± 0.28.
With GUGCAGCAAUAUUACGAGCU, the “self-splicing fitness (ln)” value reads like this: (30 °C) -1.45 ± 0.062; (37 °C) -0.353 ± 0.082.
For AAAAAGCAAUAUUACGAUAA, the “self-splicing fitness (ln)” value reads like this: (30 °C) -1.03 ± 0.074; (37 °C) -1.1 ± 0.093.
ACUGAGCAAUAUUACGCGGU: the “self-splicing fitness (ln)” value (30 °C) was -2.46 ± 0.31.
Consider GAGGAGCAAUAUUACGCACG, for which the “self-splicing fitness (ln)” value (37 °C) was -0.155 ± 0.47.
UUAGAGCAAUAUUACGUCAG: the “self-splicing fitness (ln)” value was -1.02 ± 0.15 (30 °C) and -0.83 ± 0.17 (37 °C).
As to GGCGAGCAAUAUUACGGAUC, the “self-splicing fitness (ln)” value runs as follows: (30 °C) -0.443 ± 0.053; (37 °C) 0.039 ± 0.075.
